From patent publication US20170360778, “Methods for Treating a Cytomegalovirus Infection” (The J. David Gladstone Institutes, published 2017)

Target: T1, IE2 (IE86) MBP fusion (Human cytomegalovirus, UniProt P19893 P19893:1-580)
T1 sequence: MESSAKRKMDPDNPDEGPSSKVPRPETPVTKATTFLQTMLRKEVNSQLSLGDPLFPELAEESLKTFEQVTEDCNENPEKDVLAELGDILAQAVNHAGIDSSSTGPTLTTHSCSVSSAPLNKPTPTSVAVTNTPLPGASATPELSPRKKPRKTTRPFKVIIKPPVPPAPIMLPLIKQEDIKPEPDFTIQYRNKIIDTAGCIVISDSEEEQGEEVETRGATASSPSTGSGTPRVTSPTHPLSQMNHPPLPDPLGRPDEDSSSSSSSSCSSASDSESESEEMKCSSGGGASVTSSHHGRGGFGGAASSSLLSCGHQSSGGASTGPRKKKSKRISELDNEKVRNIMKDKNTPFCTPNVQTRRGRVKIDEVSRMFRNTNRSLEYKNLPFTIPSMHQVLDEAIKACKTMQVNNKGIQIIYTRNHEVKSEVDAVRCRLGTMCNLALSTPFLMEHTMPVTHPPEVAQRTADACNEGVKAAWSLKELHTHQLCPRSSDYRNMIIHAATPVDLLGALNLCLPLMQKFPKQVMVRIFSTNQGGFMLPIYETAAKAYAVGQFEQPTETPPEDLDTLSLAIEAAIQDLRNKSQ
Test: EMSA; IE2-CRS EMSA in presence of various amounts of Hoechst 33258 (BB33258); exact probe sequence not stated, CRS core given
Conditions: tags: MBP fusion, expressed in E. coli BL21, amylose column

B1: hCMV CRS (IE2 binding site) (dsDNA)
DNA 1: TCGTTTAGTGAACCG
DNA 2: CGGTTCACTAAACGA
binding result: binds
